{"source": "paper PMC6662305", "about": "“The basic helix‐loop‐helix transcription factor, OsPIL15, regulates grain size via directly targeting a purine permease gene OsPUP7 in rice”", "key": {"OsPIL15-His [1]": {"biological_target": "T1, OsPIL15-His (Oryza sativa L. cv. Nipponbare, UniProt Q0JNI9 1-637)", "T1 sequence": "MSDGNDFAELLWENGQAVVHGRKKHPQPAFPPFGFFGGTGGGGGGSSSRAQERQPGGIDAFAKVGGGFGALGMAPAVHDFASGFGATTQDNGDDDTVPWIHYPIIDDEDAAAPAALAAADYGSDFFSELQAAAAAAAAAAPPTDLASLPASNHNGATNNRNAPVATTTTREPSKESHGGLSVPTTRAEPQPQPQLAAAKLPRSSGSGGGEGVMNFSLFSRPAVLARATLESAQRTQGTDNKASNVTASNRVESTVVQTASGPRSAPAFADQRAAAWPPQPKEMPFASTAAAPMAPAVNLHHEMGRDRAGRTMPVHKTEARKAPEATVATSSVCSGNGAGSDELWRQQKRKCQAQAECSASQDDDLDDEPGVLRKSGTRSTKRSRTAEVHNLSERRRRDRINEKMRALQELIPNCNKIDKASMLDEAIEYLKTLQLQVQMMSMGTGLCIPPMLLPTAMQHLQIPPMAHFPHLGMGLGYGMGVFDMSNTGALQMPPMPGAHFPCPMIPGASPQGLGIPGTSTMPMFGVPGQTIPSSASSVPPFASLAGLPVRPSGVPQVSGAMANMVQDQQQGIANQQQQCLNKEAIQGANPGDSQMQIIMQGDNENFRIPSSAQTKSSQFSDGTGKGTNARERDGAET", "assay": "EMSA; EMSA: Beyotime kit binding buffer (composition, salt and pH not stated), 30 min at room temperature, 6% native polyacrylamide gel", "settings": "protein: recombinant; tags: His (pET28a); chain copies: 2; label: 3' biotin; blunt"}, "OsPIL15-His [2]": {"biological_target": "T1, OsPIL15-His", "assay": "EMSA; strong signal; EMSA: Beyotime kit binding buffer (composition, salt and pH not stated), 30 min at room temperature, 6% native polyacrylamide gel", "settings": "protein: recombinant; tags: His (pET28a); chain copies: 2; label: 3' biotin; blunt"}}}
{"binder": "Mutant probe 1 (dsDNA) DNA 1: AATACAGCCGCGACTATCTC DNA 2: GAGATAGTCGCGGCTGTATT", "values": [{"measurement": "binding result", "setting": "OsPIL15-His [1]", "value": "no binding"}]}
{"binder": "Mutant probe 2 (dsDNA) DNA 1: AATACAGGCAGCCCTATCTC DNA 2: GAGATAGGGCTGCCTGTATT", "values": [{"measurement": "binding result", "setting": "OsPIL15-His [1]", "value": "no binding"}]}
{"binder": "N1-box probe (dsDNA) DNA 1: TCTAATGACACGCGAGCAAGTCC DNA 2: GGACTTGCTCGCGTGTCATTAGA", "values": [{"measurement": "binding result", "setting": "OsPIL15-His [2]", "value": "binds"}]}
{"binder": "G-box probe (dsDNA) DNA 1: TCTAATGACACGTGAGCAAGTCC DNA 2: GGACTTGCTCACGTGTCATTAGA", "values": [{"measurement": "binding result", "setting": "OsPIL15-His [1]", "value": "no binding"}]}
{"binder": "N2-box probe (dsDNA) DNA 1: TCTAATGACACGAGAGCAAGTCC DNA 2: GGACTTGCTCTCGTGTCATTAGA", "values": [{"measurement": "binding result", "setting": "OsPIL15-His [1]", "value": "no binding"}]}
